Among the data in article PMC4678821 are stoichiometry N values, retold here.

The target in this test is casposon-encoded Aciduliprofundum boonei T469 Cas1 (Aciduliprofundum boonei T469). The test can be described thus: SEC; Superdex 200 16/60, step of the purification after TEV cleavage; data not shown. On the technique in general: In gel filtration, larger molecules generally elute earlier.

Broadly, the stoichiometry N is the number of molecules, sites or subunits per partner or assembly. Substance “casposon-encoded Aciduliprofundum boonei T469 Cas1 (enzyme)” registered a stoichiometry N of 2.
